The values below come from US20170189508A1.

The assay deals with HLA-A*02 (human). The assay can be described thus: UV peptide exchange + b2m ELISA, exchange yield grade. (In general: An ELISA detects its analyte on a solid surface through an enzyme-linked reagent.)

As to SLTEVSLPL [… (SEQ ID NO: 45)], the peptide exchange yield was in the range of 50 to 75%.
